Test results published in the RNAGym collection of RNA variant scans (doi:10.7554/elife.80360).

B1: Hammerhead Ribozyme (parent)
chain: ACCGGAUGUGCUUUCCGGUCUGAUGAGUCCGUGAGGACGAAACAG

Variants of: B1
Assay: self-cleavage, relative activity (ratio to wild type); higher = more cleavage; co-transcriptional

Compared with ACUGAAUGUGCUUUCCGGUCUGAUGAGUCCGUGAGGACGAAACAG, AGCGGAUGUGCUUUCCGGUCUGACGAGUCCGUGAGGACGAAACAG is lower in self-cleavage: 0.491 for the first, 0.383 for the second.

First: ACAGGAUGUGCUUUCCGGUCUGAUGAGUCCGUGAGGAAGAAACAG
Second: ACAGGAUGUGCUUUCCGGUCUGAUGAGUCCGUGAGGACGAAAGAG
The self-cleavage of the first is higher: 0.315 for the first, 0.261 for the second.

Going from AGCGGCUGUGCUUUCCGGUCUGAUGAGUCCGUGAGGACGAAACAG to ACCGGAUGUGCUUUCCGGUCUGAUGAGUCCGUGAGCACGAAACAA, the self-cleavage rises from 0.196 to 0.374.

First: ACCGGAUGUGCUUUCUGGUCUGAUGAGUCCGUGAGGAUGAAACAG
Second: ACCGGAUGAGCUUUCCGGACUGAUGAGUCCGUGAGGACGAAACAG
The self-cleavage of the first is higher: 1.03 for the first, 0.291 for the second.

Going from CCGGGAUGUGCUUUCCGGUCUGAUGAGUCCGUGAGGACGAAACAG to ACCGGAUGUGCUUUCCGGCCUGAUGAGUCCUUGAGGACGAAACAG, the self-cleavage rises from 0.549 to 0.789.

First: ACCGGAUGUGCUUCCCGGUCUGAUGAGUCCGUGAGGAGGAAACAG
Second: ACCGGUUGUGCUUUCCGGCCUGAUGAGUCCGUGAGGACGAAACAG
The self-cleavage of the first is higher: 0.489 for the first, 0.47 for the second.

Going from ACCGGAUGUGCUUUCCGGUCUGAUGAGUCAGUGAGGACGACACAG to ACCGGUAGUGCUUUCCGGUCUGAUGAGUCCGUGAGGACGAAACAG, the self-cleavage rises from 0.423 to 0.609.

Going from ACCGGAUGUGCUUUCCCGUCUGAUGAGUCCGUGAGCACGAAACAG to ACCGGAUGUGCUUUCCGGUCUGCUGAGUCCGUGAGGACGAAUCAG, the self-cleavage rises from 0.246 to 0.331.

Compared with ACCGGAUGUGCUUUCCGGUCUGAGGAGUCCGUGAGGUCGAAACAG, ACCGGAUGUGAUUCCCGGUCUGAUGAGUCCGUGAGGACGAAACAG is higher in self-cleavage: 0.854 for the first, 1.17 for the second.

Going from ACCGGAUGUGUUUUCCGGUAUGAUGAGUCCGUGAGGACGAAACAG to ACCGGAUGUGCUUUACGGUCUGCUGAGUCCGUGAGGACGAAACAG, the self-cleavage falls from 0.441 to 0.307.

Going from ACCGGAUGUGCUUUCCGGUCAGAUGAGUCCGUGAGGACGAAAGAG to ACCGGAUGUGCUUUCCGGCCUGAUGAAUCCGUGAGGACGAAACAG, the self-cleavage rises from 0.32 to 0.382.

Compared with ACCGGAUGUGCUUUCCGGUCUGAUGUGUCCGUGAGGACGAAACAU, ACCGGAUGUGCUUUCCGGUCUGAUGAGUCCGUGAGGACGAUAAAG is lower in self-cleavage: 0.476 for the first, 0.321 for the second.

Compared with ACCGGAUGUGCUUUCCGGACUGAUGAGUCCGUGAGGACGAUACAG, ACUGGAUGUGCUUUCCGGUAUGAUGAGUCCGUGAGGACGAAACAG is higher in self-cleavage: 0.308 for the first, 0.465 for the second.

First: ACCGGAUGUGCUUUCCGGUCUGAUGAUUCCGUGAGGGCGAAACAG
Second: ACCGGAUGUGCUUUCCGGUCUGAUGAGUCCGUGAUGACGAAACAC
The self-cleavage of the first is higher: 0.501 for the first, 0.466 for the second.

Going from ACCGGAUGUGCUUUCCAGUCUGUUGAGUCCGUGAGGACGAAACAG to ACCGGAUGUGCUUUCCGGUCUAAUAAGUCCGUGAGGACGAAACAG, the self-cleavage rises from 0.315 to 0.377.

First: ACCGGAUGUGCUUUCCGGUCUGAUGGGACCGUGAGGACGAAACAG
Second: ACCGGAUGCGCUUUCCGGUCUGAUGAGUCCGUGAGCACGAAACAG
The self-cleavage of the first is lower: 0.274 for the first, 0.82 for the second.

Compared with UCCGAAUGUGCUUUCCGGUCUGAUGAGUCCGUGAGGACGAAACAG, ACCCGAUGUGCUUUCCGGUCUGAUGAGUCCGUGAGGACCAAACAG is lower in self-cleavage: 0.491 for the first, 0.244 for the second.

Going from ACCGGACGUCCUUUCCGGUCUGAUGAGUCCGUGAGGACGAAACAG to ACCGGAUGUGCUUUCCGGUCUGAUGAGCCCGUGAGGACGAACCAG, the self-cleavage falls from 0.781 to 0.338.

First: ACCGGAUGUACUUUCCGGUCCGAUGAGUCCGUGAGGACGAAACAG
Second: ACCGGAUGUGCUUUCCGGUCUAAUGAGUCCGUGAGGACGAAAUAG
The self-cleavage of the first is higher: 0.815 for the first, 0.318 for the second.

Going from ACAGGAUGUGCUUUCCGGUCUGAUGCGUCCGUGAGGACGAAACAG to ACCGGCUGUGCUUUCCGGUCUGAUGAGUCCAUGAGGACGAAACAG, the self-cleavage rises from 0.292 to 0.778.

First: ACCGGAUGUGCGUUCCGGUCUGAUGAGGCCGUGAGGACGAAACAG
Second: ACCGGAGGUGCUUUCCGGUCUAAUGAGUCCGUGAGGACGAAACAG
The self-cleavage of the first is higher: 0.685 for the first, 0.33 for the second.

Compared with ACCGGAUGUGCUUUCCGCUGUGAUGAGUCCGUGAGGACGAAACAG, ACCGGAAGUGCUUUCCGGUCUGAUGAGUCCAUGAGGACGAAACAG is higher in self-cleavage: 0.34 for the first, 1.28 for the second.

First: ACCGGAUGUGCUGUCCGGUGUGAUGAGUCCGUGAGGACGAAACAG
Second: ACCGGAUGUGCUGUCCGGUAUGAUGAGUCCGUGAGGACGAAACAG
The self-cleavage of the first is lower: 0.244 for the first, 0.374 for the second.

First: ACCGGAUGUGCUUUCCGGUCUGAUGAGUACGUGAGGACUAAACAG
Second: ACCGGAUGUGCUUUCCGGUCUGAUGAGACCGUGAGGACGAAACAU
The self-cleavage of the first is lower: 0.387 for the first, 0.496 for the second.

First: ACCGGAUGUGCUUUCCGGUCUGAUGUGUCCGUGAGGAGGAAACAG
Second: ACCGGAUGUGCUUUCCGCUCUGAUGAGUCCGGGAGGACGAAACAG
The self-cleavage of the first is lower: 0.318 for the first, 0.503 for the second.

Compared with ACCGGAUGUGCUUUCCGGUCUGAUGAGUCCGUGAGCAUGAAACAG, ACCGGAUGUGCUUGCCGGUCUGAUGACUCCGUGAGGACGAAACAG is higher in self-cleavage: 0.335 for the first, 0.618 for the second.

First: ACCGGAUGUACUUUCCGGUCUGAUGAGUCCGUGAGGACGAAACCG
Second: ACCGGAUGUGCUUUCCGGUCUGAUGAGUCGGUGAAGACGAAACAG
The self-cleavage of the first is lower: 0.517 for the first, 1.06 for the second.

Going from ACCGGAUGUGCUUUCCGGUCAGAUGAGUCCGUGACGACGAAACAG to ACCGGAUGUGCUUUCAGGUCUGAUGAGUCCGUCAGGACGAAACAG, the self-cleavage rises from 0.492 to 1.24.

Variant ACCGGAUGUUCUUUCCGGUCUGAGGAGUCCGUGAGGACGAAACAG has a self-cleavage of 1.16.
